Measurements published in patent US9228015B2, “Nogo receptor antagonists and methods of increasing neurite outgrowth” (Biogen Idec MA Inc., priority 2006, dated 2016).

B1: sNogoR310: soluble Nogo receptor-1 polypeptide, residues 26-310 of SEQ ID NOs: 7 and 9 or 27-310 of SEQ ID NO: 9; mouse form in transgenic mice (protein, listed as Homo sapiens)
chain: PCPGACVCYNEPKVTTSCPQQGLQAVPVGIPAASQRIFLHGNRISHVPAASFRACRNLTILWLHSNVLARIDAAAFTGLALLEQLDLSDNAQLRSVDPATFHGLGRLHTLHLDRCGLQELGPGLFRGLAALQYLYLQDNALQALPDDTFRDLGNLTHLFLHGNRISSVPERAFRGLHSLDRLLLHQNRVAHVHPHAFRDLGRLMTLYLFANNLSALPTEALAPLRALQYLRLNDNPWVCDCRARPLWAWLQKFRGSSSEVPCSLPQRLAGRDLKRLAANDLQGCA
B2: sNogoR344-Fc: fusion protein of residues 26-344 of rat Nogo receptor-1 and hinge and Fc region of rat IgG1 (protein)
chain: PCPGACVCYNEPKVTTSRPQQGLQAVPAGIPASSQRIFLHGNRISYVPAASFQSCRNLTILWLHSNALAGIDAAAFTGLTLLEQLDLSDNAQLRVVDPTTFRGLGHLHTLHLDRCGLQELGPGLFRGLAALQYLYLQDNNLQALPDNTFRDLGNLTHLFLHGNRIPSVPEHAFRGLHSLDRLLLHQNHVARVHPHAFRDLGRLMTLYLFANNLSMLPAEVLVPLRSLQYLRLNDNPWVCDCRARPLWAWLQKFRGSSSGVPSNLPQRLAGRDLKRLATSDLEGCAVASGPFRPFQTNQLTDEELLGLPKCCQPDAADKA
modifications: left off: a dimerising Fc or GST
notes: fusion protein of residues 26-344 of rat Nogo receptor-1 and hinge and Fc region of rat IgG1

Experiments:
[1] = tested on: mice with dorsal over-hemisection injury; experiment: gfap::sNogoR310 transgenic mice, dorsal over-hemisection: axon tracing and serotonin fiber analysis; type: in vivo, mouse
Source text: We cloned the mouse sNogoR310 cDNA (corresponding to amino acids 1-310 of the Nogo receptor-1) into the Nod site of the C-3123 vector. In this vector, sNogoR310 expression is under the control of the glial fibrillary acidic protein (gfap) gene regulatory elements, which allow high level expression with enhanced secretion from reactive astrocytes at site of injury. We digested the resulting vector sequentially with AatII and SfiI and isolated the gfap::sNogoR310 construct on a 3.4 kb fragment. We microinjected this fragment into embryos to generate transgenic mice. We verified by PCR that the transgene had integrated and identified five founder lines. We crossed heterozygous males of the two founder lines with the highest expression levels to female C57BL/6J mice. We confirmed that the GFAP-positive cells express and secrete sNogoR310 in heterozygous transgenic mice by Western blot analysis using antibody raised against Nogo receptor-1.
We deeply anesthetized adult female heterozygous transgenic or littermate WT mice (10-16 weeks of age) and performed a complete laminectomy, fully exposing the dorsal part of spinal cord at T6 and T7 levels. We performed a dorsal over-hemisection at T6 with a 30-gauge needle and a pair of microscissors to completely sever the dorsal and dorsolateral corticospinal tracts (CSTs). We passed a marked needle across the dorsal part of the spinal cord several times to assure that the lesion was at a depth of 1.0 mm. We sutured the muscle layers over the laminectomies and closed the skin on the back with surgical staples. To trace the corticospinal tracts, we made a burr hole overlying cerebral cortex on the right side into the skull 14 days after spinal cord injury. We applied the tracer BDA (MW 10,000, 10% in PBS) (Molecular Probes, Eugene, Oreg.) to 4 injection sites at a depth of 0.7 mm from the cortical surface, Four weeks after injury, the mice were perfused transcardially with PBS, followed by 4% paraformaldehyde.
We investigated the integrity of descending corticospinal tracts (CST) by injecting anterograde tracer biotin dextran amine (BDA) into the right motor cortex as described in Li and Strittmatter, J. Neurosci. 23:4219-27 (2003). In littermate WT mice, the prominent dorsal CST (dCST) is tightly bundled rostral to the lesion, and a few dorsolateral CST fibers are visible ipsilaterally. A small number of BDA-labeled short collateral sprouts project into gray matter, particularly in the ventral cord, but the sprouting is largely confined to the side of the cord contralateral to the tracer injection. However, the sections rostral to dorsal hemisection from injured sNogoR310 transgenic mice indicate a quite different BDA labeling pattern. A high density of BDA-labeled CST fibers are observed outside of prominent dCST in all the transgenic mice from line Tg08 or line Tg01. Ectopic fibers extend throughout the gray matter area, and some fibers reach into lateral and dorsolateral white matter. Several fibers (4-12 sprouts per transverse section) are seen on the opposite side of the spinal cord (ipsilateral to the tracer injection site). Micro densitometric measurement of the collateral sprouts indicates approximately a tenfold increase in sprouting density in sNogoR310 transgenic mice. […]

[2] = tested on: mice with dorsal over-hemisection injury; experiment: gfap::sNogoR310 transgenic mice, dorsal over-hemisection: behavioral tests; type: in vivo, mouse
Source text: The Basso-Beattie-Bresnahan (BBB) locomotor rating scale (Basso et al., Neurotrauma 13:343-359 (1996)), the inclined plane test and the inclined grid walking test (Li and Strittmatter, J Neurosci. 23:4219-27 (2003)) were monitored in rats and mice after injury. For the inclined plane test, we measured the maximal angle to which a 50 cm×60 cm board could be angled for 5 sec without the mouse sliding off. For inclined grid walking, the mice were trained to climb a wire grid (35 cm long with 2.54 cm squares) at a slope of 45 degrees. The number of instances in which the hindpaw dropped below the grid plane was scored for each excursion from bottom to top. For the rat behavioral testing, BBB locomotor scale, grid walking and footprint analysis were performed. For grid walking, the rats were trained to walk on a wire grid (70 cm long with 2.54 an squares), and the number of instances in which the hindpaw dropped below the grid plane was counted. For footprint analysis, the walking patterns of rat hindpaws were recorded with ink during a continuous locomotion across a 90 cm runway, and stride length on each side and stride width were calculated (Metz et al., Brain Res. 883:165-177 (2000)). All of these behavioral tests were performed by at least two individuals. Throughout the surgery, behavioral testing and histologic analysis, researchers were blind to the identity of the compound in the minipump.
We deeply anesthetized adult female heterozygous transgenic or littermate WT mice (10-16 weeks of age) and performed a complete laminectomy, fully exposing the dorsal part of spinal cord at T6 and T7 levels. We performed a dorsal over-hemisection at T6 with a 30-gauge needle and a pair of microscissors to completely sever the dorsal and dorsolateral corticospinal tracts (CSTs). We passed a marked needle across the dorsal part of the spinal cord several times to assure that the lesion was at a depth of 1.0 mm. We sutured the muscle layers over the laminectomies and closed the skin on the back with surgical staples. […]

[3] = tested on: NogoA, NogoB, NogoC, MAG and OM-gp binding to Nogo receptor-1; experiment: Soluble Nogo receptors block ligand binding to Nogo receptor-1
chick neurons = experiment: Neurite outgrowth assay using chick neurons; type: cell-based
[4] = tested on: DRG neurons, myelin-mediated inhibition of neurite outgrowth; experiment: Neurite outgrowth assay, P3-4 rat DRG neurons, myelin mixed with test protein (Example 10); type: cell-based; conditions: mixed with CNS myelin, FIGS. 9-11
Method: Lab-Tek® culture slides (4 wells) were coated with 0.1 mg/ml poly-D-lysine (Sigma®). CNS myelin alone or mixed with sNogoR310, sNogoR310-Fc fusion protein, mAb 5B10 or control PBS were separately spotted as 3 μl drops. Fluorescent microspheres (Polysciences) were added to the myelin/PBS to allow later identification of the drops (Grandpre et al., Nature 403:439-444 (2000)). Lab-Tek® slides were then rinsed and coated with 10 μg/ml laminin (Gibco™).
Dorsal root ganglions (DRG's) from P3-4 Sprague Dawley rat pups were dissociated with 1 mg/ml collagenase type 1 (Worthington), triturated with fire-polished Pasteur pipettes pre-plated to enrich in neuronal cells and finally plated at 23,000 cells/well on the pre-coated Labtek culture slides. The culture medium was F12 containing 5% heat inactivated donor horse serum, 5% heat inactivated fetal bovine serum and 50 ng/ml mNGF and incubated at 37° C. and 5% CO2 for 6 hours.
Slides were fixed for 20 minutes with 4% paraformaldehyde containing 20% sucrose and stained for the neuronal marker anti beta-III-tubulin (Covance TUJ1) diluted 1:500. As secondary antibody anti-mouse Alexa Fluor® 594 (Molecular Probes) was diluted 1:300 and slides were coverslipped with Gel/Mount™ (Biømeda™). 5× digital images were acquired with OpenLab™ software and analyzed by using the MetaMorph® software for quantification of neurite outgrowth.

P6 DRG neurons = experiment: Neuro-protection assay, P6-7 rat DRG neurons with or without laminin; type: cell-based
Method: We also tested the neuro-protective effect of soluble Nogo receptors by performing experiments with cells grown in the presence and absence of laminin. Neuronal cell growth in media without laminin is poor and models neuronal stress conditions.
DRG's were dissected from post-natal day 6-7 rat pups (P6-7), dissociated into single cells and plated on 96-well plates pre-coated with poly-D-lysine as described above. In some wells 2 μg/ml laminin was added for 2-3 hours and rinsed before the cells were plated. After an 18-20 h incubation the plates were fixed with 4% para-formaldehyde, stained with rabbit anti-Beta-III-tubulin antibody diluted 1:500 (Covance®) and anti-HuC/D diluted 1:100 (Molecular Probes), and fluorescent secondary antibodies (Molecular Probes) were added at 1:200 dilution. The ArrayScan® II (Cellomics®) was used to capture 5× digital images and to quantify neurite outgrowth as average neurite outgrowth/neuron per well, by using the Neurite outgrowth application. Nine 5× images from 3 wells/condition were analyzed.
(§1) sNogoR344-Fc or rat IgG were added in solution to P6-7 DRG neurons and to differentiated Neuroscreen™ cells at the time of plating.

[5] = tested on: Neuroscreen cells (sub-clone of PC12 cells); experiment: Neuro-protection assay, differentiated Neuroscreen cells with or without laminin; type: cell-based; conditions: same concentrations, absence of laminin
Method: In some experiments, a sub-clone of PC12 cells (Neuroscreen™) was used (Cellomics®). The Neuroscreen™ cells were pre-differentiated for 7 days with 200 ng/ml NGF, detached and replated on 96-well plates pre-coated with poly-D-lysine. In some wells 5 μg/ml laminin was added for 2-3 hours and rinsed before the cells were plated. After 2 days incubation the plates were fixed with 4% paraformaldehyde, stained with rabbit anti-Beta-III-tubulin antibody diluted 1:500 (Covance®) and Hoechst (nuclear stain). The ArrayScan® II was used to quantify neurite outgrowth as in the DRG cells.
as §1

| Molecule | BDA-labeled regenerating fibers coursing in the rostral-caudal axis ([1]; any level 1-4 mm caudal to the lesion, each transgenic mouse) | fibers on the opposite side of the spinal cord (ipsilateral to the tracer injection site) ([1]; rostral to dorsal hemisection, transgenic mice) | CST sprouting ([1]; secreted from astrocytes in transgenic mice) | total length of serotonin fibers in the ventral horn of caudal spinal cord ([1]; transgenic vs WT group) | increase in collateral sprouting density (micro densitometric measurement) ([1]; transgenic vs WT mice) | sustainable angle on inclined plane ([2]; days 7-28 after injury vs control) | BBB scores ([2]; lines Tg08 and Tg01 vs control, 7-28 days) | inclined grid climbing errors ([2]; post-injury, FIG. 13D) | block of binding of NogoA, NogoB, NogoC, MAG and OM-gp to Nogo receptor-1 [3] | protection in similar assay using chick neurons (chick neurons) | protection of DRG neurons from myelin-mediated inhibition of neurite outgrowth [4] | neuro-protective effect (P6 DRG neurons; 1 μM and 10 μM, absence of laminin) | quantification of neurite outgrowth (P6 DRG neurons; absence of laminin) | effect on DRG neurons growing on a laminin substrate (P6 DRG neurons; same concentrations, laminin substrate) | neuro-protective effect [5] |
| --- | --- | --- | --- | --- | --- | --- | --- | --- | --- | --- | --- | --- | --- | --- | --- |
| B1 | 5-15 | 4-12 sprouts per transverse section | induces CST sprouting | much greater number | tenfold | significantly greater | significantly higher | progressive improvement | block | protective | protected | – | – | – | – |
| B2 | – | – | – | – | – | – | – | – | – | – | – | observed | dose-dependent increase | did not produce any unusual effect | seen |
